Results as given in the Human Domainome abundance scans (Beltran et al. 2025).
± gives the uncertainty stated by the source.

B1: Glucocorticoid receptor, residues 419 to 494; numbered along this chain, P04150 (parent)
chain: KLCLVCSDEASGCHYGVLTCGSCKVFFKRAVEGQHNYLCAGRNDCIIDKIRRKNCPACRYRKCLQAGMNLEARKTK

Variants of: B1
Experiment: abundance fitness (aPCA) (normalised: wild type 0, dead -1); higher = more abundant; growth selection in yeast, the domain comes from the species named
Conditions: Homo sapiens

First: N54S
Second: F27A
The abundance fitness of the first is higher: -0.081 ± 0.043 for the first, -0.25 ± 0.038 for the second.

Compared with L4E, C45Q is lower in abundance fitness: 0.024 ± 0.046 for the first, -0.558 ± 0.2 for the second.

Y15L and Q65T are within error of each other in abundance fitness: -0.164 ± 0.037 for the first, -0.086 ± 0.042 for the second.

K24I and K53C are within error of each other in abundance fitness: -0.245 ± 0.072 for the first, -0.263 ± 0.069 for the second.

R52M and H14N are within error of each other in abundance fitness: -0.101 ± 0.052 for the first, -0.086 ± 0.093 for the second.

R52E and A30F are within error of each other in abundance fitness: -0.028 ± 0.047 for the first, -0.142 ± 0.099 for the second.

G16D and N43W are within error of each other in abundance fitness: -0.078 ± 0.064 for the first, -0.056 ± 0.039 for the second.

F26M and C58F are within error of each other in abundance fitness: -0.793 ± 0.14 for the first, -1 ± 0.3 for the second.

R51F and R59L are within error of each other in abundance fitness: 0.051 ± 0.11 for the first, -0.017 ± 0.035 for the second.

P56N and K1E are within error of each other in abundance fitness: 0.013 ± 0.056 for the first, -0.048 ± 0.054 for the second.

Going from I46W to C63L, the abundance fitness falls from -0.137 ± 0.036 to -0.741 ± 0.068.

Compared with G16Q, N36D is higher in abundance fitness: -0.225 ± 0.049 for the first, -0.065 ± 0.092 for the second.

A72E and R42D are within error of each other in abundance fitness: 0.047 ± 0.041 for the first, 0.06 ± 0.059 for the second.

L4D and R42Y are within error of each other in abundance fitness: 0.035 ± 0.07 for the first, -0.065 ± 0.17 for the second.

Compared with K74G, I47K is lower in abundance fitness: -0.006 ± 0.037 for the first, -0.267 ± 0.064 for the second.

L4V and G21T are within error of each other in abundance fitness: -0.052 ± 0.035 for the first, -0.031 ± 0.046 for the second.

D8S and L2R are within error of each other in abundance fitness: -0.034 ± 0.038 for the first, 0.032 ± 0.035 for the second.

K24N and D44A are within error of each other in abundance fitness: -0.028 ± 0.061 for the first, -0.014 ± 0.035 for the second.

First: G33P
Second: F26R
The abundance fitness of the first is higher: -0.265 ± 0.059 for the first, -0.758 ± 0.071 for the second.

C13W and K76A are within error of each other in abundance fitness: -0.055 ± 0.041 for the first, 0.028 ± 0.051 for the second.

G41M and A40Y are within error of each other in abundance fitness: -0.004 ± 0.052 for the first, -0.032 ± 0.095 for the second.

L70C and N54Y are within error of each other in abundance fitness: -0.029 ± 0.053 for the first, 0.014 ± 0.097 for the second.

First: N43P
Second: K76M
The abundance fitness of the first is lower: -0.575 ± 0.075 for the first, -0.023 ± 0.1 for the second.

L2E and N54A are within error of each other in abundance fitness: 0.049 ± 0.037 for the first, 0.05 ± 0.037 for the second.

K74Q and L70K are within error of each other in abundance fitness: 0.063 ± 0.057 for the first, -0.029 ± 0.054 for the second.

Going from A66R to C55M, the abundance fitness falls from -0.179 ± 0.036 to -1.16 ± 0.2.

Going from A10Y to L2I, the abundance fitness rises from -0.272 ± 0.08 to 0.114 ± 0.075.

Compared with Y37E, K49P is higher in abundance fitness: -0.107 ± 0.052 for the first, 0.016 ± 0.044 for the second.

First: F27G
Second: I47M
The abundance fitness of the first is lower: -0.929 ± 0.089 for the first, -0.143 ± 0.049 for the second.

C63W and M68Q are within error of each other in abundance fitness: -0.889 ± 0.12 for the first, -0.999 ± 0.18 for the second.

First: G41Q
Second: I47S
The abundance fitness of the first is higher: -0.055 ± 0.048 for the first, -0.252 ± 0.04 for the second.

C6G and M68N are within error of each other in abundance fitness: -0.934 ± 0.11 for the first, -0.62 ± 0.45 for the second.

Going from C13A to K62F, the abundance fitness falls from -0.02 ± 0.038 to -0.158 ± 0.073.

Going from S22F to V17L, the abundance fitness falls from 0.043 ± 0.11 to -0.16 ± 0.038.

Going from V17D to A57V, the abundance fitness falls from -0.405 ± 0.12 to -0.656 ± 0.059.

L18W and A57G are within error of each other in abundance fitness: -0.01 ± 0.047 for the first, -0.071 ± 0.03 for the second.

I50L and N69H are within error of each other in abundance fitness: 0.046 ± 0.036 for the first, 0.028 ± 0.067 for the second.

First: E32V
Second: C13G
The abundance fitness of the first is higher: -0.051 ± 0.036 for the first, -0.154 ± 0.033 for the second.

L2N and S7Q are within error of each other in abundance fitness: 0.092 ± 0.14 for the first, 0.029 ± 0.046 for the second.

N43Q and L70T are within error of each other in abundance fitness: 0.028 ± 0.05 for the first, -0.03 ± 0.045 for the second.

Going from N69P to Q65H, the abundance fitness rises from -0.252 ± 0.051 to 0.09 ± 0.062.

V31S and N43D are within error of each other in abundance fitness: 0.037 ± 0.037 for the first, -0.008 ± 0.057 for the second.

L18M and L4P are within error of each other in abundance fitness: -0.077 ± 0.056 for the first, -0.098 ± 0.046 for the second.

R29E and H35K are within error of each other in abundance fitness: 0.033 ± 0.05 for the first, -0.002 ± 0.054 for the second.

Compared with H35Y, C20P is lower in abundance fitness: -0.08 ± 0.09 for the first, -0.594 ± 0.12 for the second.

Going from I50T to C20G, the abundance fitness falls from -0.007 ± 0.047 to -0.805 ± 0.12.

P56A and Y60F are within error of each other in abundance fitness: 0 ± 0.032 for the first, 0.004 ± 0.085 for the second.

A10I and K49N are within error of each other in abundance fitness: -0.15 ± 0.075 for the first, -0.06 ± 0.12 for the second.

First: C3W
Second: Y15W
The abundance fitness of the first is lower: -0.879 ± 0.14 for the first, 0.008 ± 0.049 for the second.

I46F and L70R are within error of each other in abundance fitness: 0.087 ± 0.068 for the first, 0.023 ± 0.03 for the second.

Compared with C63Q, N69Q is higher in abundance fitness: -0.661 ± 0.094 for the first, -0.071 ± 0.053 for the second.

Going from C58Q to C13P, the abundance fitness rises from -0.768 ± 0.13 to -0.07 ± 0.047.

L18I and R52I are within error of each other in abundance fitness: 0.035 ± 0.082 for the first, -0.093 ± 0.11 for the second.

H14R and A10D are within error of each other in abundance fitness: -0.137 ± 0.032 for the first, -0.251 ± 0.12 for the second.

I46P and D44H are within error of each other in abundance fitness: -0.048 ± 0.042 for the first, -0.11 ± 0.12 for the second.

K28N and K49H are within error of each other in abundance fitness: -0.063 ± 0.058 for the first, -0.045 ± 0.076 for the second.

Going from F26N to R29K, the abundance fitness rises from -0.714 ± 0.28 to 0.03 ± 0.059.

Going from C6E to Y60I, the abundance fitness rises from -0.941 ± 0.14 to -0.09 ± 0.078.

G21R and L2H are within error of each other in abundance fitness: -0.086 ± 0.033 for the first, -0.002 ± 0.091 for the second.

C3H and C55D are within error of each other in abundance fitness: -0.737 ± 0.44 for the first, -1.13 ± 0.33 for the second.

L18Y and A72H are within error of each other in abundance fitness: 0.098 ± 0.086 for the first, -0.044 ± 0.061 for the second.

K1S and N36M are within error of each other in abundance fitness: -0.062 ± 0.063 for the first, 0.008 ± 0.046 for the second.

C39Y and C39P are within error of each other in abundance fitness: -0.951 ± 0.34 for the first, -0.585 ± 0.11 for the second.

R42M and K28S are within error of each other in abundance fitness: -0.024 ± 0.049 for the first, -0.068 ± 0.044 for the second.

Compared with L4R, M68D is lower in abundance fitness: 0.017 ± 0.029 for the first, -0.768 ± 0.18 for the second.

Going from D44W to K28D, the abundance fitness rises from -0.423 ± 0.09 to -0.061 ± 0.069.

R59I and C58M are within error of each other in abundance fitness: -0.694 ± 0.18 for the first, -0.896 ± 0.17 for the second.

Compared with T19P, N69Y is higher in abundance fitness: -0.791 ± 0.13 for the first, -0.105 ± 0.066 for the second.

Compared with H35V, R59G is lower in abundance fitness: -0.027 ± 0.033 for the first, -0.825 ± 0.076 for the second.

K76S and V25F are within error of each other in abundance fitness: 0.099 ± 0.052 for the first, -0.005 ± 0.064 for the second.

R42F and I46Y are within error of each other in abundance fitness: 0.077 ± 0.098 for the first, 0.029 ± 0.052 for the second.

L70G and Y15A are within error of each other in abundance fitness: -0.068 ± 0.033 for the first, -0.085 ± 0.041 for the second.

Y60H and Y15E are within error of each other in abundance fitness: -0.178 ± 0.11 for the first, -0.067 ± 0.042 for the second.

Going from L64M to C63H, the abundance fitness falls from -0.023 ± 0.053 to -0.813 ± 0.25.

N36F and E71P are within error of each other in abundance fitness: -0.006 ± 0.084 for the first, -0.038 ± 0.05 for the second.

First: D44Y
Second: K62M
The abundance fitness of the first is lower: -0.37 ± 0.13 for the first, -0.042 ± 0.041 for the second.

Compared with P56L, D48Q is lower in abundance fitness: -0.047 ± 0.034 for the first, -0.385 ± 0.061 for the second.

Going from C39D to I47V, the abundance fitness rises from -0.863 ± 0.17 to 0.015 ± 0.033.

A10H and R61Y are within error of each other in abundance fitness: -0.235 ± 0.072 for the first, -0.089 ± 0.11 for the second.

Compared with R59D, K62Y is higher in abundance fitness: -0.609 ± 0.21 for the first, -0.187 ± 0.082 for the second.

Compared with D48G, V5P is lower in abundance fitness: -0.334 ± 0.034 for the first, -1.1 ± 0.23 for the second.

H14S and V31A are within error of each other in abundance fitness: -0.076 ± 0.039 for the first, -0.031 ± 0.039 for the second.

K49E and L38Q are within error of each other in abundance fitness: -0.097 ± 0.039 for the first, -0.024 ± 0.04 for the second.

In the case of R42K, the abundance fitness is reported as 0.106 ± 0.053.
